From patent US20230041071A1 (NATIONAL INSTITUTE OF BIOLOGICAL SCIENCES BEIJING, published 2023)
Numbering of substitutions follows the chain as printed.

B1: hu9C12v1 (antibody, V domains shown)
VH: EVQLVESGGGLVKPGGSLRLSCAASGFTFSSYPMSWVRQAPGKGLEWVSTISTGGTYTYYPDSVKGRFTISRDNAKNSLYLQMNSLRAEDTAVYYCARQGPIYYGNYYYAMDYWGQGTTVTVSS
VL: DIVMTQSPLSLPVTLGQPASISCRSSQSLVHSDGNTYLHWYQQRPGQSPKLLIYKVSNRFSGVPDRFSGSGSGTDFTLKISRVEAEDVGVYYCSQSTHVPYTFGGGTKVEIK
notes: Humanized 9C12; captured by anti-human Fc in SPR
B2: ch9C12 (antibody, V domains shown)
VH: EVKLVESGGGLVKPGGSLKLSCAASGFTFSSYPMSWVRQTPEKRLEWVATISTGGTYTYYPDSVKGRFTISRDNAKNTLYLQMSSLRSEDTAMYYCARQGPIYYGNYYYAMDYWGQGTSVTVSS
VL: B1 VL with S7P, T14S, Q17D, P18Q, Q42L, V88L, Y92F, V109L
notes: also called chimeric 9C12
B3: hu9C12v5 (antibody, V domains shown)
VH: B1 VH with G42E, Y103L, Y104R, G105K, A110G, Y113V
VL: B1 VL with I2V, Q17D, H31D, S32G, D33Q, G34D, N35G, S61D, G105Q, V109L
notes: Humanized 9C12 variant; captured by anti-human Fc in SPR
B4: ch23H8 (antibody, V domains shown)
VH: EVQLQESGGGLVKPGGSLKLSCAASGFTFNSYAMSWVRQTPEKRLEWVATISTGGSHTYYPDSVKGRFTISRDNAKNTLYLQMSSLRSEDTAMYYCARHGYLLYDGYYEWYFDVWGAGTTVTVSS
VL: DIVLTQSPASLAVSLGQRATISCKASQSVDYDGHSFLNWYQQKPGQPPKLLIYAASNLESGLPARFSGSGSGTDFTLNIHPVEEEDAATYYCQQSTEDPPYTFGGGTKLEIK
notes: also called chimeric 23H8
B5: hu23H8v1 (antibody, V domains shown)
VH: EVQLVESGGGLVKPGGSLRLSCAASGFTFNSYAMSWVRQAPGKGLEWVSTISTGGSHTYYPDSVKGRFTISRDNAKNSLYLQMNSLRAEDTAVYYCARHGYLLYDGYYEWYFDYWGQGTLVTVSS
VL: DIVLTQSPASLAVSPGQRATITCRASESVDYDGHSFINWYQQKPGQPPKLLIYAASNKDTGVPARFSGSGSGTDFTLTINPVEAEDTANYYCQQSTEDPPYTFGQGTKLEIK
notes: Humanized 23H8; captured by anti-human Fc in SPR
B6: hu23H8v4 (antibody, V domains shown)
VH: B5 VH with N30S, D62E, D105E
VL: B5 VL
notes: Humanized 23H8 variant; captured by anti-human Fc in SPR
B7: hu23H8v2 (antibody, V domains shown)
VH: B5 VH
VL: DIQMTQSPSSLSASVGDRVTITCRASQSVDYDGHSFLNWYQQKPGKAPKLLIYAASNLQSGVPSRFSGSGSGTDFTLTISSLQPEDFATYYCQQSTEDPPYTFGQGTKLEIK
notes: as for B5
B8: hu23H8v5 (antibody, V domains shown)
VH: B5 VH with N30S, D62E, D105E
VL: B7 VL with D32E, D98N
notes: Humanized 23H8 variant
B9: hu23H8v3 (antibody, V domains shown)
VH: B5 VH
VL: DIVMTQSPDSLAVSLGERATINCKSSQSVDYDGHSFLNWYQQKPGQPPKLLIYAASNRESGVPDRFSGSGSGTDFTLTISSLQAEDVAVYYCQQSTEDPPYTFGQGTKLEIK
notes: as for B5
B10: hu23H8v6 (antibody, V domains shown)
VH: B5 VH with N30S, D62E, D105E
VL: B9 VL with D32E, D98N
notes: Humanized 23H8 variant
B11: ch1H9 (antibody, V domains shown)
VH: EVKLMESGGDLVKPGGSLKLSCVASGFTFSGYPMSWVRQTPEKRLEWVATISTGARHTYYPDSVKGRFTISRDNAKNTLYLQMSSLRSEDTAMYYCARHEGLRRGKYHCIMDYWGQGTSVTVSS
VL: DILLTQSPASLAVSLGQRATISCKASQSIDYDGDSFLNWYQQKPGQPPKLLIYAASNLESGIPARFSGSGSGTDFTLNIHPVEEEDAATYYCHQCNEDPYMFGGGTKLEIR
notes: also called chimeric 1H9
B12: hu1H9v1 (antibody, V domains shown)
VH: EVQLVESGGGLVKPGGSLRLSCAASGFTFSGYPMSWVRQAPGKGLEWVSTISTGARHTYYPDSVKGRFTISRDNAKNSLYLQMNSLRAEDTAVYYCARHEGLRRGKYHSIMDYWGQGTLVTVSS
VL: DIVLTQSPASLAVSPGQRATITCRASESVDYDGDSFINWYQQKPGQPPKLLIYAASNKDTGVPARFSGSGSGTDFTLTINPVEAEDTANYYCHQSNEDPYMFGQGTKLEIK
notes: Humanized 1H9; captured by anti-human Fc in SPR
B13: hu1H9v2 (antibody, V domains shown)
VH: B12 VH
VL: B12 VL with M101L
notes: as for B12
B14: hu1H9v3 (antibody, V domains shown)
VH: B12 VH
VL: B12 VL with M101V
notes: Humanized 1H9
B15: hu1H9v4 (antibody, V domains shown)
VH: B12 VH
VL: DIQMTQSPSSLSASVGDRVTITCRASQSIDYDGDSFLNWYQQKPGKAPKLLIYAASNLQSGVPSRFSGSGSGTDFTLTISSLQPEDFATYYCQQSNEDPYVFGQGTKLEIK
notes: as for B12
B16: hu1H9v5 (antibody, V domains shown)
VH: B12 VH
VL: DIVMTQSPDSLAVSLGERATINCKSSQSIDYDGDSFLNWYQQKPGQPPKLLIYAASNRESGVPDRFSGSGSGTDFTLTISSLQAEDVAVYYCQQSNEDPYVFGQGTKLEIK
notes: as for B12

Biological target: T1, hAREG-EGFd-mFc (human; mouse, UniProt P15514 142-184)
T1 construct: Expressed in 293F cells; not shown: Fc fragment of mouse IgG2a
T1 chain: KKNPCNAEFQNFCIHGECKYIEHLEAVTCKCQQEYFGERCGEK
Test: SPR, Biacore T200; mAb captured on anti-human Fc chip, antigen in solution
Procedure: (§1) To evaluate affinities of different mouse hybridoma mAbs or their humanized and engineered variants, SPR measurement was performed using Biacore T200 instrument. mAbs were captured on anti-human Fc CM5 biosensor chip surface, hAREG-EGFd-mFc, mAREG-EGFd-mFc or hAREG-98aa (purchased from PeproTech, cat #100-55B) in serial dilutions were injected over antibody-bound surface, followed by a dissociation phase. Association rates (Ka) and dissociation rates (Kd) were calculated using the one-to-one Langmuir binding model (BIA Evaluation Software, GE Life Sciences). The equilibrium dissociation constant (KD) was calculated as the ratio kd/ka.
Binder B1 has a Kd of 1 nM, a koff of 0.000572 s⁻¹ and a kon of 570000 M⁻¹ s⁻¹. For B2, the Kd was 1.71 nM, the koff was 0.001 s⁻¹ and the kon was 587000 M⁻¹ s⁻¹. With B3 the Kd was 0.852 nM, the koff was 0.000411 s⁻¹ and the kon was 483000 M⁻¹ s⁻¹. B4 gave a Kd of 0.75 nM, a koff of 0.000313 s⁻¹ and a kon of 418000 M⁻¹ s⁻¹. B5 gave a Kd of 0.205 nM, a koff of 0.000214 s⁻¹ and a kon of 1.05e+06 M⁻¹ s⁻¹. B6 gave a Kd of 0.336 nM, a koff of 0.000276 s⁻¹ and a kon of 821000 M⁻¹ s⁻¹. Work on B7 yielded a Kd of 0.244 nM, a koff of 0.000249 s⁻¹ and a kon of 1.02e+06 M⁻¹ s⁻¹. For B8, the Kd was 0.565 nM, the koff was 0.000348 s⁻¹ and the kon was 628000 M⁻¹ s⁻¹. B9 was tested, and the Kd was 0.178 nM, the koff was 0.000213 s⁻¹ and the kon was 1.2e+06 M⁻¹ s⁻¹. With B10 the Kd was 0.309 nM, the koff was 0.000246 s⁻¹ and the kon was 803000 M⁻¹ s⁻¹. With B11 the Kd was 1.31 nM. B12 was tested, and the Kd was 0.799 nM, the koff was 0.000233 s⁻¹ and the kon was 291000 M⁻¹ s⁻¹. Binder B13 has a Kd of 0.762 nM, a koff of 0.000229 s⁻¹ and a kon of 301000 M⁻¹ s⁻¹. Work on B14 yielded a Kd of 0.969 nM, a koff of 0.000259 s⁻¹ and a kon of 267000 M⁻¹ s⁻¹. For B15, the Kd was 0.758 nM, the koff was 0.000184 s⁻¹ and the kon was 243000 M⁻¹ s⁻¹. For B16, the Kd was 0.811 nM, the koff was 0.000206 s⁻¹ and the kon was 254000 M⁻¹ s⁻¹.

Each binder was assayed against T2, hAREG-98aa (human, UniProt P15514 101-198) in the same assay as above.
T2 construct: Bought protein
T2 sequence (looked up): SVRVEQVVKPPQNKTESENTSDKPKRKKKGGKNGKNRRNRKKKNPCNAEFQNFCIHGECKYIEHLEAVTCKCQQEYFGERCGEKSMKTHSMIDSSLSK
Procedure: as §1
B3 gave a Kd of 0.349 nM, a koff of 0.00283 s⁻¹ and a kon of 8.11e+06 M⁻¹ s⁻¹. For B10, the Kd was 0.537 nM and the kon was 1.11e+06 M⁻¹ s⁻¹.
